Literature values as cited in patent publication US7419780B2, “Methods and assays for screening protein targets” (The Trustees of Columbia University in the City of New York, priority 2000, dated 2008).

Settings: substrate nitrocefin

B1: E. cloacae P99 wt: wild-type E. cloacae P99 cephase (protein, UniProt P05364 21-381, looked up)
Beta-lactamase: TPVSEKQLAEVVANTITPLMKAQSVPGMAVAVIYQGKPHYYTFGKADIAANKPVTPQTLFELGSISKTFTGVLGGDAIARGEISLDDAVTRYWPQLTGKQWQGIRMLDLATYTAGGLPLQVPDEVTDNASLLRFYQNWQPQWKPGTTRLYANASIGLFGALAVKPSGMPYEQAMTTRVLKPLKLDHTWINVPKAEEAHYAWGYRDGKAVRVSPGMLDAQAYGVKTNVQDMANWVMANMAPENVADASLKQGIALAQSRYWRIGSMYQGLGWEMLNWPVEANTVVEGSDSKVALAPLPVAEVNPPAPPVKASWVHKTGSTGGFGSYVAFIPEKQIGIVMLANTSYPNPARVEAAYHILEALQ
For B1, the “% WT (percentage of wild-type kcat/Km as calculated in that experiment)” value is given as 100%, the Km is given as 25 ± 1 µM and the kcat is given as 780 ± 30 s⁻¹.
